Where no end group is shown, it is not given here.
B1: Phage-991 (peptide)
peptide: YCEGHTLEYMWKCL
modifications: cysteine pairing not given here; also: displayed fused to phage pIII protein, fusion end and linker not given here
notes: Clonal phage of the peptide-87 library, tested as crude supernatant; not shown: fused to the pIII filament protein of the bacteriophage
B2: Phage-996 (peptide)
peptide: YCDGHTSEYMTKCL
modifications: cysteine pairing not given here; also: displayed fused to phage pIII protein, fusion end and linker not given here
notes: as for B1
B3: Phage-994 (peptide)
peptide: YCDGHLPVYMMKCL
modifications: cysteine pairing not given here; also: displayed fused to phage pIII protein, fusion end and linker not given here
notes: as for B1
B4: Phage-992 (peptide)
peptide: YCDGHSQAHMQKCL
modifications: cysteine pairing not given here; also: displayed fused to phage pIII protein, fusion end and linker not given here
notes: as for B1
B5: Phage-990 (peptide)
peptide: YCDGHSEVYMSKCL
modifications: cysteine pairing not given here; also: displayed fused to phage pIII protein, fusion end and linker not given here
notes: as for B1
B6: Phage-993 (peptide)
peptide: YCAGHDQQYMEKCL
modifications: cysteine pairing not given here; also: displayed fused to phage pIII protein, fusion end and linker not given here
notes: as for B1
B7: Phage-995 (peptide)
peptide: YCAGHNAQYMSKCL
modifications: cysteine pairing not given here; also: displayed fused to phage pIII protein, fusion end and linker not given here
notes: as for B1
B8: Phage-1077 (peptide)
peptide: YCDGHLQEYMQKCL
modifications: cysteine pairing not given here; also: displayed as fusion to phage pIII, linker not given here
B9: Phage-1088 (peptide)
peptide: YCDGHLSIYMTKCL
modifications: cysteine pairing not given here; also: displayed as fusion to phage pIII, linker not given here
B10: Phage-1079 (peptide)
peptide: YCDGHLSEYIGKCL
modifications: cysteine pairing not given here; also: displayed as fusion to phage pIII, linker not given here
B11: Phage-1083 (peptide)
peptide: YCEGHLPEYMIKCI
modifications: cysteine pairing not given here; also: displayed as fusion to phage pIII, linker not given here
B12: Phage-1080 (peptide)
peptide: YCEGHSQLYMAKCL
modifications: cysteine pairing not given here; also: displayed as fusion to phage pIII, linker not given here
B13: Phage-1082 (peptide)
peptide: YCEGHLPAYMGKCI
modifications: cysteine pairing not given here; also: displayed as fusion to phage pIII, linker not given here
B14: Phage-1078 (peptide)
peptide: YCDGHQPQYMSKCL
modifications: cysteine pairing not given here; also: displayed as fusion to phage pIII, linker not given here
B15: Phage-1085 (peptide)
peptide: YCDGHMKEYMLKCL
modifications: cysteine pairing not given here; also: displayed as fusion to phage pIII, linker not given here
B16: Phage-1076 (peptide)
peptide: YCEGHLDEYLQKCL
modifications: cysteine pairing not given here; also: displayed as fusion to phage pIII, linker not given here
B17: Phage-1081 (peptide)
peptide: YCDGHSETYLWKCL
modifications: cysteine pairing not given here; also: displayed as fusion to phage pIII, linker not given here
B18: Phage-1084 (peptide)
peptide: YCAGHTSEYMSKCL
modifications: cysteine pairing not given here; also: displayed as fusion to phage pIII, linker not given here
B19: Phage-1087 (peptide)
peptide: YCDGHLALYMWKCL
modifications: cysteine pairing not given here; also: displayed as fusion to phage pIII, linker not given here
B20: Phage-1075 (peptide)
peptide: YCDGHAPEYIQKCL
modifications: cysteine pairing not given here; also: displayed as fusion to phage pIII, linker not given here
B21: Phage-1086 (peptide)
peptide: YCDGHVKEYMYKCL
modifications: cysteine pairing not given here; also: displayed as fusion to phage pIII, linker not given here
B22: Phage-1108 (Peptide-87 library clone, SEQ ID NO: 1424) (peptide)
peptide: YCEGHLPEYMIKCL
notes: Tested as clonal phage supernatant; not shown: pIII coat protein of the bacteriophage to which the peptide is fused
B23: Phage-1106 (Peptide-87 library clone, SEQ ID NO: 1422) (peptide)
peptide: YCDGHTAEFIGKCL
notes: as for B22
B24: Phage-1104 (Peptide-87 library clone, SEQ ID NO: 1420) (peptide)
peptide: YCSEHQIIFIQKCL
notes: as for B22
B25: Phage-1107 (Peptide-87 library clone, SEQ ID NO: 1423) (peptide)
peptide: YCAGHALEYMGKCL
notes: as for B22
B26: Phage-1111 (Peptide-87 library clone, SEQ ID NO: 1427) (peptide)
peptide: YCDGHIPEYMTKCL
notes: as for B22
B27: Phage-1105 (Peptide-87 library clone, SEQ ID NO: 1421) (peptide)
peptide: YCEGHLEIYLAKCL
notes: as for B22
B28: Phage-1102 (Peptide-87 library clone, SEQ ID NO: 1418) (peptide)
peptide: YCDGHLPLYMQKCF
notes: as for B22
B29: Phage-1103 (Peptide-87 library clone, SEQ ID NO: 1419) (peptide)
peptide: YCAGHLPMYMQKCL
notes: as for B22
B30: Phage-1110 (Peptide-87 library clone, SEQ ID NO: 1426) (peptide)
peptide: YCEGHLPMYMQKCL
notes: as for B22
B31: Phage-1109 (Peptide-87 library clone, SEQ ID NO: 1425) (peptide)
peptide: YCEGHLPAYMWKCL
notes: as for B22

target: T1, Anti-CD28 Fab (SEQ ID NOs: 696, 697); experiment: phage binding ELISA; Fab-coated wells pre-incubated with CD28 antigen as competitor, anti-M13 HRP detection;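 further: crude clonal phage supernatants from panned colonies added to wells after blocking buffer plus CD28 treatment, bound phage measured after a brief incubation and washing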
T1 construct: In the phage ELISA the Fab was biotinylated and captured on neutravidin coated plates
T1 sequence (VH, as listed by the source, chain 1 of 2): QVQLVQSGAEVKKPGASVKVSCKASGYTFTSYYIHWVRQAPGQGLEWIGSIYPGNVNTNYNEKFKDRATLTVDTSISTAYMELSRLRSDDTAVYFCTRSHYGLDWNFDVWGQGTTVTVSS
T1 sequence (VL, as listed by the source, chain 2 of 2): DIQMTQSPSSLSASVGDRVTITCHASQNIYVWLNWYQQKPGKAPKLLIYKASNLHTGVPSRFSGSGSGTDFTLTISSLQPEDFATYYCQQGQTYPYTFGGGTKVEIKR
Experimental: (§1) After panning, phage infected bacteria were plated out and colonies picked into 96 well blocks. Clonal phage was then amplified and separated from bacterial cells via centrifugation.
(§2) Clonal phage were harvested as crude supematants and screened via standard ELISAs. […] Prior to the addition of clonal phage, wells were incubated with blocking buffer and CD28 antigen or blocking buffer alone. Without washing or aspirating, clonal phage supematants were then added to the wells and incubated for a short time. Wells were then washed followed by detection of bound phage using a horse radish conjugated anti-M13 antibody. Clonal phage of interest were then sent for sequence analysis.

Point of comparison: B6, “Anti-CD28 Fab signal in the presence of CD28” value 0.23. Against it:
- B1 — higher, 0.33
- B2 — lower, 0.06
- B3 — lower, 0.07
- B4 — lower, 0.08
- B5 — lower, 0.06
- B7 — lower, 0.05

target: T1, Anti-CD28 Fab (SEQ ID NOs: 696, 697); experiment: phage binding ELISA; biotinylated anti-CD28 Fab on neutravidin plate, clonal phage supernatant, anti-M13 HRP detection

Point of comparison: B5, “Anti-CD28 Fab signal (phage binding ELISA)” value 1.55. Against it:
- B1 — the same, 1.55
- B2 — lower, 1.54
- B3 — the same, 1.55
- B4 — the same, 1.55
- B6 — the same, 1.55
- B7 — the same, 1.55

target: T2, Anti-CD28 Fab (SEQ ID NOs: 696, 697); experiment: phage binding ELISA; Fab-coated wells pre-incubated with CD28 antigen as competitor, phage detected with anti-M13 HRP
T2 construct: In the phage ELISA the Fab was biotinylated and captured on neutravidin coated plates
T2 sequence (VH, as listed by the source, chain 1 of 2): as the sequence (VH, as listed by the source, chain 1 of 2) above
T2 sequence (VL, as listed by the source, chain 2 of 2): as the sequence (VL, as listed by the source, chain 2 of 2) above
Experimental: as §1, §2

Point of comparison: B13, “Anti-CD28 Fab signal in the presence of CD28 (phage binding ELISA)” value 0.09. Against it:
- B8 — lower, 0.06
- B9 — lower, 0.07
- B10 — lower, 0.06
- B11 — higher, 0.1
- B12 — lower, 0.07
- B14 — the same, 0.09
- B15 — lower, 0.06
- B16 — lower, 0.07
- B17 — higher, 0.1
- B18 — lower, 0.07
- B19 — higher, 0.17
- B20 — lower, 0.06
- B21 — lower, 0.06

target: T3, Anti-CD28 Fab (SEQ ID NOs: 696, 697); experiment: phage ELISA; biotinylated anti-CD28 Fab on neutravidin plate, clonal phage supernatant, anti-M13 HRP detection;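 further: crude supernatants of single phage clones picked after panning were screened for binding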
T3 construct: In the phage ELISA the Fab was biotinylated and captured on neutravidin coated plates
T3 sequence (VH, as listed by the source, chain 1 of 2): as the sequence (VH, as listed by the source, chain 1 of 2) above
T3 sequence (VL, as listed by the source, chain 2 of 2): as the sequence (VL, as listed by the source, chain 2 of 2) above

Point of comparison: B26, “Anti-CD28 Fab signal (phage binding ELISA)” value 1.31. Against it:
- B22 — higher, 1.32
- B23 — higher, 1.32
- B24 — higher, 1.32
- B25 — higher, 1.32
- B27 — higher, 1.32
- B28 — higher, 1.33
- B29 — higher, 1.33
- B30 — the same, 1.31
- B31 — the same, 1.31

target: T3, Anti-CD28 Fab (SEQ ID NOs: 696, 697); experiment: phage ELISA; captured anti-CD28 Fab pre-incubated with CD28 antigen as competitor, anti-M13 HRP detection;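 further: crude clonal phage supernatants screened by ELISA, with wells pre-incubated with CD28 antigen in blocking buffer, compared against wells given blocking buffer alone as control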
Experimental: as §1, §2

Point of comparison: B22, “Anti-CD28 Fab signal in the presence of CD28 (phage binding ELISA)” value 0.06. Against it:
- B23 — the same, 0.06
- B24 — higher, 0.08
- B25 — the same, 0.06
- B26 — the same, 0.06
- B27 — higher, 0.07
- B28 — higher, 0.1
- B29 — higher, 0.08
- B30 — higher, 0.08
- B31 — higher, 0.08

target: T2, Anti-CD28 Fab (SEQ ID NOs: 696, 697); experiment: phage binding ELISA; biotinylated anti-CD28 Fab on neutravidin plate, clonal phage detected with anti-M13 HRP
Experimental: as §1, §2

Point of comparison: B10, “Anti-CD28 Fab signal (phage binding ELISA)” value 1.37. Against it:
- B8 — higher, 1.38
- B9 — lower, 1.36
- B11 — lower, 1.36
- B12 — the same, 1.37
- B13 — the same, 1.37
- B14 — higher, 1.38
- B15 — lower, 1.36
- B16 — higher, 1.38
- B17 — the same, 1.37
- B18 — lower, 1.36
- B19 — lower, 1.36
- B20 — higher, 1.38
- B21 — lower, 1.36

— patent publication US20260242478A1 (published 2026)
